{"source": "paper PMC10790703", "about": "(mBio, 2023)", "binders": {"B1": {"name": "SARS-CoV-2 ORF3a dG188 mutant, HA-tagged (natural protein)", "chain": "MDLFMRIFTIGTVTLKQGEIKDATPSDFVRATATIPIQASLPFGWLIVGVALLAVFQSASKIITLKKRWQLALSKGVHFVCNLLLLFVTVYSHLLLVAAGLEAPFLYLYALVYFLQSINFVRIIMRLWLCWKCRSKNPLLYDANYFLCWHTNCYDYCIPYNSVTSSIVITSGDGTTSPISEHDYQIGYTEKWESGVKDCVVLHSYFTSDYYQLYSTQLSTDTGVEHVTFFIYNKIVDEPEEHVQIHTIDGSSGVVNPVMEPIYDEPTTTTSVPL", "notes": "also called G188 deletion mutant; E-ORF3a (represented by the dG188 mutant); not shown: HA, C-terminal, kept"}}, "biological_target": "T1, ubiquitin E3 ligase TRIM59 (human (endogenous in 293T), UniProt Q8IWR1 1-403)", "T1 construct": "TRIM59, ubiquitin E3 ligase primarily located in the ER, in 293T cells", "T1 sequence (looked up)": "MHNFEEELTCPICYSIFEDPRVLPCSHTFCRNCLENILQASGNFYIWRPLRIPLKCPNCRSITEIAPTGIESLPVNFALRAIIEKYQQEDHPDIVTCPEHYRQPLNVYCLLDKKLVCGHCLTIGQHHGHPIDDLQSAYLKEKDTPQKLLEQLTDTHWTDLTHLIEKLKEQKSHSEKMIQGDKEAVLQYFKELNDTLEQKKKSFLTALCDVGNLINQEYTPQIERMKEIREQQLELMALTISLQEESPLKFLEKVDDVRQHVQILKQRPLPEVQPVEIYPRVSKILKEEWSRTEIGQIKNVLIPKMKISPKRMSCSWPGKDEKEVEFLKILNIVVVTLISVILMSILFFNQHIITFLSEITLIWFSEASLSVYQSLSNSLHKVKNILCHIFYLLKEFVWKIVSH", "assay": "co-IP", "conditions": "partners not purified", "data": [{"binder": "B1", "values": [{"measurement": "fold of pulled-down ORF3a against WT ORF3a (densitometry)", "value": "~1.5", "unit": "fold"}]}]}
